Entries after “also recorded” stand apart in the source; their conditions may differ.
What was measured:
[1] = target: T1, human HER2 (hHER2) recombinant protein (Homo sapiens, UniProt P04626); experiment: Biolayer interferometry (BLI) affinity assay on protein A biosensors coated with hHER2; details: 1:1 binding fit model
T1 construct: purchased R&D Systems
Description: (§1) Affinity experiments were performed by Biolayer Interferometry (BLI) assay, using an Octet System and Protein A biosensors (ForteBio). Recombinant human protein hHER2 was purchased from R&D Systems (Minneapolis, US).
(§2) The affinity of the polypeptides of the invention for the target HER2 was measured by Biolayer interferometry assay. To this purpose, the protein A biosensors (ForteBio) were coated with human HER2 (hHER2) recombinant protein. After a brief wash with PBS, the coated sensor was assayed versus the affitin Aff02-0 at different concentrations (i.e. […], 500, 250, 125, 62.5, 31.3, 15.6 and 0 nM).
(§3) A curve fitting analysis was then performed in order to determine the dissociation equilibrium constant. The sensorgrams were analyzed using the Octet Data Analysis software 8.2 (ForteBio) with a 1:1 binding fit model to determine the dissociation equilibrium constant (Kd) and the related association and dissociation rate constants (kon and koff) with R^2 value assessing the fitting quality.
as §2, with “IRDye800CW-Aff02 conjugate to” for “polypeptides of the invention for”, “IRDye800CW-Aff02 conjugate” for “affitin Aff02-0”, “1000, 100, 10, 1, 0.1 ng/mL).” for “500, 250, 125, 62.5, 31.3, 15.6 and 0 nM).”
A steady state analysis was performed in order to determine the dissociation equilibrium constant. The sensorgrams were analyzed using the Octet Data Analysis software 8.2 (ForteBio) with a 1:1 binding fit model to determine the dissociation equilibrium constant (Kd).

[2] = target: T2, recombinant human protein hHER2 (R&D Systems) (human, UniProt P04626 23-652); experiment: BLI (Octet), hHER2 on Protein A biosensors, 1:1 fit
T2 construct: also called human HER2 (hHER2) recombinant protein
Description: as §1, §2
as §3, with “(kₒₙ” for “(kon”, “R²” for “R^2”

[3] = target: T2, recombinant human protein hHER2 (R&D …); experiment: BLI (Octet), hHER2 on Protein A biosensors, steady state analysis
[4] = target: HER2 (Homo sapiens, UniProt P04626); experiment: ELISA monitoring of anti-HER2 affitin selection; format: binding; details: end of selection process
Source text: (§4) To selectively target HER2 receptor, a library of affitins has been enriched against the target by several consecutive rounds of screening (up to 6 rounds). The enrichment of anti-HER2 affitins has been followed after any selection round by ELISA assay monitoring, also controlling the condition of negligible binding to human (HSA), murine (MSA) and bovine (BSA) serum albumin.

[5] = system: human (HSA), murine (MSA) and bovine (BSA) serum albumin; experiment: ELISA control of binding to serum albumins during selection
Source text: as §4

[6] = system: SK-BR-3 breast adenocarcinoma cell line (overexpressing HER2 receptor); experiment: Cell internalization assay (viability with Pe38 fusion), HER2 overexpressing cells; format: cell-based
Description: (§5) The cells internalization of Aff01 was evaluated using a dedicated cell-based assay. Briefly, Aff01 was tagged with SEQ ID NO: 3 (i.e. forming sequence Aff02-0) and then fused to a truncated portion of Pseudomonas exotoxin A, wherein the cell internalization domain of the toxin is removed, thus forming a final peptide with the sequence as set out in SEQ ID NO: 5. Such truncated form (Pe38) needs to be internalized by means of the Aff01 to keep its cytotoxic activity.
(§6) To test internalization, then, the viability of the breast adenocarcinoma cell line SK-BR-3 (overexpressing HER2 receptor) and of the breast cancer cell line MCF-7 (low expressing HER2 receptor) was measured at different nanofitin concentrations.

[7] = system: MCF-7 breast cancer cell line (low expressing HER2 receptor); experiment: Cell internalization assay (viability with Pe38 fusion), HER2 low expressing cells; format: cell-based; details: Aff01 tested as fusion Aff02-0/Pe38 (SEQ ID NO: 5); different nanofitin concentrations
Description: as §5, §6

[8] = set-up: species or system Balb/c nu/nu mice; details: mouse, in vivo
Description: In vivo imaging experiments were performed using the IVIS Spectrum In Vivo Imaging System (Perkin Elmer Inc.), equipped with 10 narrow band excitation filters (30 nm bandwidth) and 18 narrow band emission filters (20 nm bandwidth) spanning 430-850 nm.
In vivo optical imaging biodistribution of IRDye800CW-Aff02 was evaluated in healthy mice. Optical Imaging experiments on three healthy mice were performed using an IVIS Spectrum system after administration of IRDye800CW-Aff02 at a dose of 10 nmol/mouse, in an administration volume of 0.2 mL. The experiments were carried out at 15 min, 30 min, 1 h, 2 h, 4 h, 6 h, 24 h and 48 hours after intravenous administration of the conjugate.
Regions of interest (ROIs) were drawn on a reference background healthy region (hind leg's muscle) of the mouse and on whole body for each fluorescence image at every time point to evaluate signal intensity in the tissues, expressed as Average Radiant Efficiency (see FIG. 5, reporting the fluorescence signal curves of IRDye800CW-Aff02 administered 10 nmol/mouse in Balb/c nu/nu mice).
Pharmacokinetic analysis of the signal was performed to evaluate the half time of the tested product by using a mono-exponential decay model and the results are reported in Table 3:
After sacrifice, several organs were collected for the measure of residual fluorescence (after 48h). The measurements of fluorescence signal intensity have been obtained from the analysis of each organ selecting an area of interest (ROIs) at the center of each sample. The analyzed organs were: kidney, lung, spleen, liver, muscle and heart.

[9] = target: T3, HER2/Fc chimeric protein (Homo sapiens, UniProt P04626); experiment: Competitive ELISA of Aff02 versus trastuzumab-biotin or pertuzumab-biotin; format: binding
T3 construct: Fc (immunoglobulin Fc fusion partner)
Source text: A competitive ELISA assay has been developed in order to investigate if the epitope of the HER2/Neu antigen recognized by Aff02 polypeptide was distinct from the epitope recognized by the humanized monoclonal antibodies trastuzumab and pertuzumab, actually used in therapeutic treatments of HER2-positive tumors.
The first experiment, aimed at evaluating the quality of the assay, was a competitive ELISA assay carried out between trastuzumab and trastuzumab-biotin. Briefly, a Medisorp transparent plastic plate (96 wells, Thermo Scientific), was coated (64 wells) with 2.5 μg/mL of HER2/Fc chimeric protein in TBS pH 7.4 (1 h, RT). The wells were blocked with 0.5% BSA in TBS (1 h, RT).
At the end of the incubation, the plate was washed three times with 250 μL of TBS-T and incubated with Streptavidin-HRP 1:10000 in TBS-T (1 h at RT). The plate was washed again 3 times with TBS-T and developed 5 min with TMB reagent (100 μL). The reaction was blocked with 50 μL of sulfuric acid 2 M and read at 450 nm.
As positive control, the same experiment was repeated using an antibody anti RSGH TAG-HRP (1:4000) in place of streptavidin-HRP, in order to evaluate the curve affinity of Aff02 to HER2 receptor.
Briefly, a Medisorp transparent plastic plate (96 wells, Thermo Scientific) was coated (64 wells) with 2.5 μg/mL of Her2/Fc chimeric protein in TBS pH 7.4 (1 h, RT). The wells was blocked with 0.5% BSA in TBS (1 h, RT). […] At the end of the incubation, the plate was washed three times with 300 μL of TBS-T and incubated with Streptavidin-HRP 1:10000 or anti-RSGH TAG-HRP 1:4000 in TBS-T (1 h at RT). The plate was washed again 3 times with TBS-T and developed 5 min with TMB reagent (100 μL). The reaction was blocked with 50 μL of sulfuric acid 2 M and read at 450 nm.

B1: affitin Aff02-0 (designed binder)
chain: MRGSHHHHHHGSVKVKFWGAGVEKEVDTSKITWVTRSGKYVIFTYDDNGKAGPGRVPEKDAPKELLDMLARAEREK
notes: also called unlabeled Aff02-0 affitin
koff ([1]; unlabeled affitin): 8.3 ± 0.1 × 10^−3 s^−1
kon ([1]; unlabeled affitin): 4.5 ± 0.1 × 10^5 M^−1s^−1
Kd [2]: 18 nM
koff [2]: 0.0083 s⁻¹
kon [2]: 450000 M⁻¹ s⁻¹

B2: IRDye800CW-Aff02 conjugate (designed binder)
chain: MRGSHHHHHHGSVKVKFWGAGVEKEVDTSKITWVTRSGKYVIFTYDDNGKAGPGRVPEKDAPKELLDMLARAEREKC
modifications: chain 1 pos 77: Cys carrying IRDye800CW through a maleimide thioether, written C
notes: Aff02 was reduced with TCEP, then coupled to IRDye800CW-maleimide at the C-terminal Cys
Kd [3]: 1.6 nM

B3: Aff01: 64 aac anti-HER2 affitin, SEQ ID NO: 1 (protein)
chain: VKVKFWGAGVEKEVDTSKITWVTRSGKYVIFTYDDNGKAGPGRVPEKDAPKELLDMLARAEREK
affinity to HER2 [4]: nanomolar affinity
binding to albumin [5]: absence of binding to albumin
cytotoxic induction (cell viability) on SK-BR-3 cells ([6]; Aff01 tested as fusion Aff02-0/Pe38 (SEQ ID NO: 5), different nanofitin concentrations): dose-dependent cytotoxic induction
cell internalization through HER2 receptor ([6]; concluded from cell death induction by Pe38 fusion): effective transport of Pe38 through HER2 receptor
alteration of cell viability on MCF-7 cells [7]: no significant alterations

B4: IRDye800CW-Aff02: fluorophore IRDye800CW-maleimide conjugated to the C-terminal cysteine of affitin Aff02 (conjugate)
chain: MRGSHHHHHHGSVKVKFWGAGVEKEVDTSKITWVTRSGKYVIFTYDDNGKAGPGRVPEKDAPKELLDMLARAEREKC
modifications: cyclised or stapled
Kd (dissociation equilibrium constant) of the complex IRDye800CW-Aff02 conjugate/hHER2 ([1]; steady state analysis): in the nanomolar range
clearance pathway [8]: preferably cleared by the renal pathway
Half life in muscle ([8]; iv): 2.122 h
Half life in whole body ([8]; iv): 2.196 h
average half-life (muscle and whole body) ([8]; iv): 2.16 h

B5: Aff02: 77 aac variant of SEQ ID NO: 1 with a Cys at the C-terminus and a hexahistidine tag at the N-terminus (protein)
chain: MRGSHHHHHHGSVKVKFWGAGVEKEVDTSKITWVTRSGKYVIFTYDDNGKAGPGRVPEKDAPKELLDMLARAEREKC
competition with trastuzumab and pertuzumab for binding to HER2, assay c / overall ([9]; antibody-biotin curves in presence or absence of Aff02, FIGS. 4a, 4b): no competition; also recorded: do not compete for binding to HER2
binding to HER2 receptor (ELISA) ([9]; assay a, FIG. 2): binders for HER2 receptor
Aff02 response (anti RSGH-Tag Ab detection) with increasing trastuzumab-biotin or pertuzumab-biotin, assay b ([9]; fixed 10 μg/mL Aff02, variable antibody-biotin, FIGS. 3a, 3b): negligible response decrease
epitope competition, assay a ([9]; variable Aff02 (0.01-10000 ng/mL) with 0.2 μg/mL trastuzumab-biotin or pertuzumab-biotin, FIG. 2): epitopes recognized by trastuzumab and pertuzumab are different from that recognized by Aff02
